Test system: piggyBac transposase wild type (Trichoplusia ni)
Assay: cell_activity
Conditions: yeast excision assay; reference

Sequence of piggyBac transposase wild type (Trichoplusia ni) (chain, as listed by the source): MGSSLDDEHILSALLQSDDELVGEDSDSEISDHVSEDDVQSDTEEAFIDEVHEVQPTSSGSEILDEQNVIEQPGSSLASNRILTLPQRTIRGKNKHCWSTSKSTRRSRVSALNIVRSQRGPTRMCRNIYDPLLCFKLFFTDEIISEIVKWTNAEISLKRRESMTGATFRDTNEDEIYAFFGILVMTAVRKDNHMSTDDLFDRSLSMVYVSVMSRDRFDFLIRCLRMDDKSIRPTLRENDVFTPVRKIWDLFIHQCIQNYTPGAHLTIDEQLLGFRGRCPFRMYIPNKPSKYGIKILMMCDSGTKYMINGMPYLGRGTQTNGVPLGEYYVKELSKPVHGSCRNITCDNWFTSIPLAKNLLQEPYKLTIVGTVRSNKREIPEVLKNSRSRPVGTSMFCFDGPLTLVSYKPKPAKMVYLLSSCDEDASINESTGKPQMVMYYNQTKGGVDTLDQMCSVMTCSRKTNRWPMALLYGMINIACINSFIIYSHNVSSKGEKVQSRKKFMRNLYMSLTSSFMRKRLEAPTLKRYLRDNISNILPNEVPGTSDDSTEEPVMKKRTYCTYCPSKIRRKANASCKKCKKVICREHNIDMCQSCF

Work on “piggyBac transposon ura- to ura+ excision cassette in yeast” yielded an activity (fold (normalized)) of 1.
